Reference: patent US12139520B2 (priority 2020, dated 2024)
Numbered stars: 1 amine (or outer) side, 2 acyl side, 3 side chain; on linkers, the order of the positions; unused ones are H or OH. Bridge positions count the residues as written; N and C are the ends. Square brackets hold non-standard residues; d marks the D form. Side chains are listed from the residue outwards. Ends that are not written are not given here. * marks the point of attachment. C20 diacid = O=C(O)CCCCCCCCCCCCCCCCCCC(=O)*; γGlu = O=C(O)[C@H](CCC(=O)[*:2])N[*:1]; Hyp = O=C(O)[C@@H]1C[C@@H](O)CN1; NMeI = CC[C@H](C)[C@H](NC)C(=O)O; AEEA = NCCOCCOCC(=O)O; Sar = CNCC(=O)O

Key:
hAMY3R = biological target: T1, hAMY3R (human, UniProt P30988); test: cell-based or functional assay
T1 sequence 1: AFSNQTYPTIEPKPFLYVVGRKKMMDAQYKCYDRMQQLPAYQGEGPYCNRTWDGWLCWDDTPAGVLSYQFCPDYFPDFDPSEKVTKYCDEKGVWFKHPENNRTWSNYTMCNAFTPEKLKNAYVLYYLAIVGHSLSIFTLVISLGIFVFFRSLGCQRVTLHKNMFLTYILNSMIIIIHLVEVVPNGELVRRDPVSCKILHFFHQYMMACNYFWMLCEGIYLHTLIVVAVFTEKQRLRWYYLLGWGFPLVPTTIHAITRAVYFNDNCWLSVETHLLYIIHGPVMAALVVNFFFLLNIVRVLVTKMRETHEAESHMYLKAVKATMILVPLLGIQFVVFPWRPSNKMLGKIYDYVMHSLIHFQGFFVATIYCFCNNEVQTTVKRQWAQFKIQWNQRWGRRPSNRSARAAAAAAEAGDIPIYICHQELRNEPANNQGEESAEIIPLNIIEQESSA
T1 sequence 2: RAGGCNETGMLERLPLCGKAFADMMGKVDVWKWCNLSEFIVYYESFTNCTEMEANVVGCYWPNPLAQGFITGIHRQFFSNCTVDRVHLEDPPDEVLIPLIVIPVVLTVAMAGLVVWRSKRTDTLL

hAM1R = hAM1R (human, UniProt Q16602); test: cell-based or functional assay

Binder	hAMY3R EC50 (cAMP) (hAMY3R) [nM]	hAM1R EC50 (cAMP) (hAM1R) [nM]
{C20 diacid-γGlu}-KCNTATCTVQRLAHQIYQFTDKDKDNVAPPTNVGSNG[Hyp]-NH2 (disulfide 2-7 (inferred); not fully specified; ends not checked) [SEQ ID NO: 77]	0.014	> 5000
{C20 diacid-γGlu}-KCNTATCTVQRLAEQIAQFTDKDKDNVAPPTNVGSNG[Hyp]-NH2 (disulfide 2-7 (inferred); not fully specified; ends not checked) [SEQ ID NO: 78]	0.014	> 5000
{C20 diacid-γGlu}-KCNTATCTVQRLAHQIAQFSDKDKDNVAPPTNVGSNG[Hyp]-NH2 (disulfide 2-7 (inferred); not fully specified; ends not checked) [SEQ ID NO: 79]	0.014	> 5000
{C20 diacid-γGlu}-RCQTATCATERLAHFLQRSSF[Sar]A[NMeI]LSSTEVGSNT[Hyp]-NH2 (disulfide 2-7 (inferred); not fully specified; ends not checked) [SEQ ID NO: 80]	0.015	44.3
GCRFGTCTVQRLAHQIYQFTDKDKDNVAPRTNIGPNG[Hyp]-NH2 (disulfide 2-7 (inferred); ends not checked) [SEQ ID NO: 81]	0.015	138
{C20 diacid-γGlu}-KCNTATCTVQRLAHQIYQFTNKDKDNVAPPTNVGSNG[Hyp]-NH2 (disulfide 2-7 (inferred); not fully specified; ends not checked) [SEQ ID NO: 82]	0.015	612
{C20 diacid-γGlu}-KCNTATCTVQRLAHQIYQFADKDKDNVAPPTNVGSNG[Hyp]-NH2 (disulfide 2-7 (inferred); not fully specified; ends not checked) [SEQ ID NO: 83]	0.015	815
GCRTGTCTVQRLAHQIYQFTDKDKDNVAPRTNVGPNGY [SEQ ID NO: 84]	0.015	2980
{C20 diacid-γGlu}-KCNTATCTVQRLAHQIVQFTDKDKDNVAPPTNVGSNG[Hyp]-NH2 (disulfide 2-7 (inferred); not fully specified; ends not checked) [SEQ ID NO: 85]	0.015	> 5000
RCNASTCTVNRLADQITQFSNKDKAQVSPPTEVGPNS[Hyp]-NH2 (disulfide 2-7 (inferred); ends not checked) [SEQ ID NO: 9]	0.006	> 5000
{C20 diacid-γGlu}-KCNTATCTVARLAHQINQFTDKDKDNVAPPTNVGSNG[Hyp]-NH2 (disulfide 2-7 (inferred); not fully specified; ends not checked) [SEQ ID NO: 86]	0.015	> 5000
{C20 diacid-γGlu}-KCNTATCTVQRLAHQIAQFTDKNKDNVAPPTNVGSNG[Hyp]-NH2 (disulfide 2-7 (inferred); not fully specified; ends not checked) [SEQ ID NO: 87]	0.015	> 5000
{C20 diacid-γGlu}-KCNTSTCTVQRLAHQIAQFTDKDKDPVAPPTNVGSNG[Hyp]-NH2 (disulfide 2-7 (inferred); not fully specified; ends not checked) [SEQ ID NO: 88]	0.015	> 5000
KCNTATCTVQRLAEQIYQFK([AEEA-AEEA-γGlu-C20 diacid])DKDKDNVAPPTNVGSNG[Hyp]-NH2 (disulfide 2-7 (inferred); not fully specified; ends not checked) [SEQ ID NO: 89]	0.015	> 5000
GCRFGTCTVQRLAHQIYQFTDKDKDNVAPRTNVGPNG[Hyp]-NH2 (disulfide 2-7 (inferred); ends not checked) [SEQ ID NO: 90]	0.016	58.5
{C20 diacid-γGlu}-KCNTATCTVQRLAHQIYQFTDKNKDNVAPPTNVGSNG[Hyp]-NH2 (disulfide 2-7 (inferred); not fully specified; ends not checked) [SEQ ID NO: 91]	0.016	840
{C20 diacid-γGlu}-KCNTATCTVQRLAHQIAQFTDKDKDPVAPPTNVGSNG[Hyp]-NH2 (disulfide 2-7 (inferred); not fully specified; ends not checked) [SEQ ID NO: 92]	0.016	933
KCNFATCTVQRLAHQIYQFTDKDKDNVAPPTEVGSNG[Hyp]-NH2 (disulfide 2-7 (inferred); ends not checked) [SEQ ID NO: 10]	0.007	552

The remaining lines, values ahead:

hAMY3R EC50 (cAMP) (hAMY3R) [nM]	hAM1R EC50 (cAMP) (hAM1R) [nM]	Binder
0.016	> 5000	KCNTATCATQRLANFLVHSSNNFGAIAPSTKVGSNGY [SEQ ID NO: 93]
0.016	> 5000	{C20 diacid-γGlu}-KCNTATCTVQRLAHQIAQFYDKDKDNVAPPTNVGSNG[Hyp]-NH2 (disulfide 2-7 (inferred); not fully specified; ends not checked) [SEQ ID NO: 94]
0.016	> 5000	{C20 diacid-γGlu}-KCNTATCTVQRLAHQIAQFTNKDKDNVAPPTNVGSNG[Hyp]-NH2 (disulfide 2-7 (inferred); not fully specified; ends not checked) [SEQ ID NO: 95]
0.016	> 5000	{C20 diacid-γGlu}-KCNTATCTVQRLAEQIYQFTDKDKDNVAPPTNVGSNT[Hyp]-NH2 (disulfide 2-7 (inferred); not fully specified; ends not checked) [SEQ ID NO: 96]
0.016	> 5000	{C20 diacid-γGlu}-KCATATCTVQRLAEQIYQFTDKDKDNVAPPTNVGSNG[Hyp]-NH2 (disulfide 2-7 (inferred); not fully specified; ends not checked) [SEQ ID NO: 97]
0.017	66.9	GCRFGTCTVQRLAHQIYQFTDKDKDNVAPRTNVSPNGY [SEQ ID NO: 98]
0.017	364	{C20 diacid-γGlu}-KCNTATCTVQRLAHQIYQFTDKDKDNVAPRTKVGSNG[Hyp] (disulfide 2-7 (inferred); ends not checked) [SEQ ID NO: 99]
0.017	> 5000	{C20 diacid-γGlu}-KCNTATCTVQRLAEQIYQFTDKDKDQVAPPTNVGSNG[Hyp]-NH2 (disulfide 2-7 (inferred); ends not checked) [SEQ ID NO: 100]
0.017	> 5000	KCNAATCTVQRLAEQIYQFTDKDKDNVAPPTNVGSNG[Hyp]-NH2 (disulfide 2-7 (inferred); ends not checked) [SEQ ID NO: 101]
0.018	> 5000	KCNTATCTVQRLAHQIYQFTDKDKDNVAPRTEVGSNGY [SEQ ID NO: 102]
0.018	> 5000	{C20 diacid-γGlu}-KCNTATCTVVRLAHQIYQFTDKDKDNVAPPTNVGSNG[Hyp]-NH2 (disulfide 2-7 (inferred); ends not checked) [SEQ ID NO: 103]
0.018	> 5000	{C20 diacid-γGlu}-KCNTATCTVQRLAHQIYQFYDKDKDNVAPPTNVGSNG[Hyp]-NH2 (disulfide 2-7 (inferred); ends not checked) [SEQ ID NO: 104]
